From patent US20160068605A1
Read-outs that look alike come from different tables or passages of the source.

Key:
[1] = molecular target: endogenous CD123 on human leukaemia cells (OCI-AML5, TF-1) (human) (UniProt P26951); experiment: MSD cell binding assay on OCI-AML5 cells (endogenous CD123)
[2] = molecular target: IL3RA-PK (CD123 tagged with ProLink) in HEK293 IL3RA-PK/CSF2RB-EA cells (UniProt P26951)
[3] = molecular target: human CD123 SP1 ECD displayed on pDisplay-transfected cells (human) (UniProt P26951); experiment: MSD-CAT, hCD123 cells, assay-2
[4] = molecular target: cyno CD123 ECD displayed on pDisplay-transfected cells (cynomolgus monkey); experiment: MSD-CAT, cynoCD123 cells, assay-2
[5] = molecular target: IL3RA-PK (CD123 tagged with ProLink) in HEK293 IL3RA-PK/CSF2RB-EA cells (UniProt P26951); remark: listed apart in the source

Sequence of human CD123 SP1 ECD displayed on pDisplay-transfected cells (human) (P26951 20-305): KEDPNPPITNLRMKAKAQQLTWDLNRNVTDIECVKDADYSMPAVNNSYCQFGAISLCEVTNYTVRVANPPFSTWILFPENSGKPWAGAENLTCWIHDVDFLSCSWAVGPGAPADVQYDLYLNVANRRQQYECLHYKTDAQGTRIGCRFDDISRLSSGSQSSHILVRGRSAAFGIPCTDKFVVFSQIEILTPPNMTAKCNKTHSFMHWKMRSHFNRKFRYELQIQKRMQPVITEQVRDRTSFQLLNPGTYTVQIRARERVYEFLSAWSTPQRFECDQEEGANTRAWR
Sequence of endogenous CD123 on human leukaemia cells (OCI-AML5, TF-1) (human) (P26951 19-378): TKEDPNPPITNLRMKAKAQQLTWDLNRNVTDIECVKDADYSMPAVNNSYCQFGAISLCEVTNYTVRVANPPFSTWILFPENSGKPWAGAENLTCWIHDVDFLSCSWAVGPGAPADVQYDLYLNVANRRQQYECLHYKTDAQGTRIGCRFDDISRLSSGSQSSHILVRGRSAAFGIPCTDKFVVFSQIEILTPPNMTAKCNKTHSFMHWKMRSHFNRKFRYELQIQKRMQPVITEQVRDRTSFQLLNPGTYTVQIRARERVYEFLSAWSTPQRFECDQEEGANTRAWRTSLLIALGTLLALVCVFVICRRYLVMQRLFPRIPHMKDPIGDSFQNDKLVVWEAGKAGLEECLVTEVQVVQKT
Sequence of cyno CD123 ECD displayed on pDisplay-transfected cells (cynomolgus monkey) (chain, as listed by the source): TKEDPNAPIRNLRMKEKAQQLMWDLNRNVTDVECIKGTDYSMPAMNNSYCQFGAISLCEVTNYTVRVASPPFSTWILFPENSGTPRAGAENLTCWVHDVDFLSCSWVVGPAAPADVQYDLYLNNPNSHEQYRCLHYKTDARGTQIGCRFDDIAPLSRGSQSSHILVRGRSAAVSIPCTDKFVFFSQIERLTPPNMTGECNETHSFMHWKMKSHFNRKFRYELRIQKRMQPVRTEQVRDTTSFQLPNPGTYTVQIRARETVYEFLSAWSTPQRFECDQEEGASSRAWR

EC50 (read off the curve) [1]: 7 µg/mL
IC50 (read off the curve): IL-3-induced CD123/CD131 heteromerization (RLU) [2]: 0.2 µg/mL
Kd [3]: 0.154 nM
Kd [4]: 0.057 nM
IC50 (read off the curve): IL-3-induced CD123/CD131 heteromerization (RLU) [5]: 0.05 µg/mL
B1: 7G3 (antibody, from another filing, V domains shown)
VH: EVQLQQSGPELVKPGASVKMSCKASGYTFTDYYMKWVKQSHGKSLEWIGDIIPSNGATFYNQKFKGKATLTVDRSSSTAYMHLNSLTSEDSAVYYCTRSHLLRASWFAYWGQGTLVTVSA
VL: DFVMTQSPSSLTVTAGEKVTMSCKSSQSLLNSGNQKNYLTWYLQKPGQPPKLLIYWASTRESGVPDRFTGSGSGTDFTLTISSVQAEDLAVYYCQNDYSYPYTFGGGTKLEIKR
